# Measurements as given in the supplement of paper PMC11246515.
# ± gives the standard deviation of the averaged measurements.
# Assay: total protein half-life in vivo (active degradation + dilution); higher = more stable protein
# [1] = E. coli NCM3722 delta-clpP delta-lon delta-hslV, growth: N-lim chemostat, doubling time 6 h
# [2] = E. coli NCM3722 delta-clpP, growth: N-lim chemostat, doubling time 6 h
# [3] = E. coli NCM3722 delta-hslV, growth: N-lim chemostat, doubling time 6 h
# [4] = E. coli NCM3722 delta-lon, growth: N-lim chemostat, doubling time 6 h
# [5] = E. coli NCM3722 delta-smpB, growth: N-lim chemostat, doubling time 6 h
# [6] = wild type E. coli NCM3722, growth: C-lim chemostat, doubling time 3 h
# [7] = wild type E. coli NCM3722, growth: C-lim chemostat, doubling time 12 h
# [8] = wild type E. coli NCM3722, growth: N-lim chemostat, doubling time 6 h
# [9] = wild type E. coli NCM3722, growth: N-lim chemostat, doubling time 12 h
# [10] = wild type E. coli NCM3722, growth: P-lim chemostat, doubling time 6 h
# [11] = wild type E. coli NCM3722, growth: P-lim chemostat, doubling time 12 h
# [12] = wild type E. coli NCM3722, growth: C-lim chemostat, doubling time 6 h
Sequence,total protein half-life in vivo [1],total protein half-life in vivo [2],total protein half-life in vivo [3],total protein half-life in vivo [4],total protein half-life in vivo [5],total protein half-life in vivo [6],total protein half-life in vivo [7],total protein half-life in vivo [8],total protein half-life in vivo [9],total protein half-life in vivo [10],total protein half-life in vivo [11],total protein half-life in vivo [12]
MKESNSRREFLSQSGKMVTAAALFGTSVPLAHAAVAGTLNCEANNTMKITDPHYYLDNVLLETGFDYENGVAVQTRTARQTVEIQDGKIVALRENKLHPDATLPHYDAGGKLMLPTTRDMHIHLDKTFYGGPWRSLNRPAGTTIQDMIKLEQKMLPELQPYTQERAEKLIDLLQSKGTTIARSHCNIEPVSGLKNLQNLQAVLARRQAGFECEIVAFPQHGLLLSKSEPLMREAMQAGAHYVGGLDPTSVDGAMEKSLDTMFQIALDYDKGVDIHLHETTPAGVAAINYMVETVEKTPQLKGKLTISHAFALATLNEQQVDELANRMVVQQISIASTVPIGTLHMPLKQLHDKGVKVMTGTDSVIDHWSPYGLGDMLEKANLYAQLYIRPNEQNLSRSLFLATGDVLPLNEKGERVWPKAQDDASFVLVDASCSAEAVARISPRTATFHKGQLVWGSVAG,4.64 ± 0.15 h,4.34 ± 0.53 h,4.51 ± 0.31 h,4.82 ± 0.11 h,3.937 ± 0.008 h,3.21 ± 0.41 h,9.95 ± 0.62 h,4.32 ± 0.17 h,6.843 ± 0.056 h,5.67 ± 0.43 h,11.53 ± 0.036 h,
MKKLRIGVVGLGGIAQKAWLPVLAAASDWTLQGAWSPTRAKALPICESWRIPYADSLSSLAASCDAVFVHSSTASHFDVVSTLLNAGVHVCVDKPLAENLRDAERLVELAARKKLTLMVGFNRRFAPLYGELKTQLATAASLRMDKHRSNSVGPHDLYFTLLDDYLHVVDTALWLSGGKASLDGGTLLTNDAGEMLFAEHHFSAGPLQITTCMHRRAGSQRETVQAVTDGALIDITDMREWREERGQGVVHKPIPGWQSTLEQRGFVGCARHFIECVQNQTVPQTAGEQAVLAQRIVDKIWRDAMSE,5.47 ± 0.24 h,5.38 ± 1.1 h,5.7 ± 0.25 h,6.04 ± 0.96 h,4.86 ± 0.11 h,3.12 ± 0.51 h,11 ± 0.34 h,4.96 ± 0.26 h,9.402 ± 0.04 h,6.2 ± 0.17 h,12 ± 0.19 h,5.88 ± 0.12 h
MKKLQIAVGIIRNENNEIFITRRAADAHMANKLEFPGGKIEMGETPEQAVVRELQEEVGITPQHFSLFEKLEYEFPDRHITLWFWLVERWEGEPWGKEGQPGEWMSLVGLNADDFPPANEPVIAKLKRL,4.64 ± 0.53 h,,4.58 ± 0.57 h,5.1 h,5.16 ± 1.3 h,3.35 ± 0.21 h,9.03 ± 0.32 h,4.16 ± 0.41 h,6.87 ± 0.51 h,4.48 ± 0.6 h,11 ± 1.5 h,5.04 ± 0.078 h
MSEGWNIAVLGATGAVGEALLETLAERQFPVGEIYALARNESAGEQLRFGGKTITVQDAAEFDWTQAQLAFFVAGKEATAAWVEEATNSGCLVIDSSGLFALEPDVPLVVPEVNPFVLTDYRNRNVIAVPDSLTSQLLAALKPLIDQGGLSRISVTSLISASAQGKKAVDALAGQSAKLLNGIPIDEEDFFGRQLAFNMLPLLPDSEGSVREERRIVDEVRKILQDEGLMISASVVQAPVFYGHAQMVNFEALRPLAAEEARDAFVQGEDIVLSEENEFPTQVGDASGTPHLSVGCVRNDYGMPEQVQFWSVADNVRFGGALMAVKIAEKLVQEYLY,5.37 ± 0.42 h,4.6 ± 0.02 h,4.6 ± 0.11 h,4.9 ± 0.73 h,4.57 ± 0.048 h,3.02 ± 0.082 h,9.85 ± 0.24 h,5.14 ± 0.59 h,8.99 ± 1.9 h,6.16 ± 0.097 h,11.9 ± 0.28 h,5.614 ± 0.008 h
MKSRAAVAFAPGKPLEIVEIDVAPPKKGEVLIKVTHTGVCHTDAFTLSGDDPEGVFPVVLGHEGAGVVVEVGEGVTSVKPGDHVIPLYTAECGECEFCRSGKTNLCVAVRETQGKGLMPDGTTRFSYNGQPLYHYMGCSTFSEYTVVAEVSLAKINPEANHEHVCLLGCGVTTGIGAVHNTAKVQPGDSVAVFGLGAIGLAVVQGARQAKAGRIIAIDTNPKKFDLARRFGATDCINPNDYDKPIKDVLLDINKWGIDHTFECIGNVNVMRAALESAHRGWGQSVIIGVAVAGQEISTRPFQLVTGRVWKGSAFGGVKGRSQLPGMVEDAMKGDIDLEPFVTHTMSLDEINDAFDLMHEGKSIRTVIRY,5.33 ± 0.98 h,4.73 ± 0.68 h,4.43 ± 0.28 h,4.95 ± 0.45 h,4.24 ± 0.45 h,2.68 ± 0.26 h,10.1 ± 1 h,4.1 ± 0.47 h,6.819 ± 0.021 h,5.6 ± 0.19 h,11.4 ± 0.52 h,5.87 ± 0.69 h
MWLLDQWAERHIAEAQAKGEFDNLAGSGEPLILDDDSHVPPELRAGYRLLKNAGCLPPELEQRREAIQLLDILKGIRHDDPQYQEVSRRLSLLELKLRQAGLSTDFLRGDYADKLLDKINDN,,,6.32 h,,,3.06 h,,5.56 h,12.3 h,6.15 h,,
MQRETVWLVEDEQGIADTLVYMLQQEGFAVEVFERGLPVLDKARKQVPDVMILDVGLPDISGFELCRQLLALHPALPVLFLTARSEEVDRLLGLEIGADDYVAKPFSPREVCARVRTLLRRVKKFSTPSPVIRIGHFELNEPAAQISWFDTPLALTRYEFLLLKTLLKSPGRVWSRQQLMDSVWEDAQDTYDRTVDTHIKTLRAKLRAINPDLSPINTHRGMGYSLRGL,5.69 ± 1.5 h,4.02 ± 0.41 h,3.55 h,4.49 ± 0.45 h,3.92 h,2.74 ± 0.18 h,11.5 ± 3.6 h,3.99 h,6.73 ± 0.16 h,4.04 h,7.89 ± 0.58 h,4.86 ± 0.057 h
MAIILGIDPGSRVTGYGVIRQVGRQLSYLGSGCIRTKVDDLPSRLKLIYAGVTEIITQFQPDYFAIEQVFMAKNADSALKLGQARGVAIVAAVNQELPVFEYAARQVKQTVVGIGSAEKSQVQHMVRTLLKLPANPQADAADALAIAITHCHVSQNAMQMSESRLNLARGRLR [P0A814],4.93 ± 0.29 h,3.57 ± 0.066 h,3.29 ± 0.05 h,3.46 ± 0.7 h,4.18 ± 1.7 h,2.26 ± 0.1 h,6.6 ± 0.2 h,3.56 ± 0.17 h,5.21 ± 0.39 h,,6.3836 ± 0.0059 h,4.34 ± 0.17 h
MVKSQPILRYILRGIPAIAVAVLLSACSANNTAKNMHPETRAVGSETSSLQASQDEFENLVRNVDVKSRIMDQYADWKGVRYRLGGSTKKGIDCSGFVQRTFREQFGLELPRSTYEQQEMGKSVSRSNLRTGDLVLFRAGSTGRHVGIYIGNNQFVHASTSSGVIISSMNEPYWKKRYNEARRVLSRS [P0AFV4],2.68 ± 0.98 h,2.09 ± 0.79 h,2.61 ± 1.4 h,2.34 ± 0.085 h,2.33 ± 0.45 h,1.02 ± 0.41 h,7.8 ± 1.4 h,2.19 ± 1.5 h,4.29 ± 1.6 h,3.39 ± 0.15 h,4.64 ± 0.49 h,3.38 ± 0.45 h
MNIPQLTALCLRYHGVLLDASEEVVHVAVVDAPSHELLDALHFATTKRIEITCWTRQQMEGHASRTQQTLPVAVQEKHQPKAELLTRTLQSALEQRASDIHIEPADNAYRIRLRIDGVLHPLPDVSPDAGVALTARLKVLGNLDIAEHRLPQDGQFTVELAGNAVSFRIATLPCRGGEKVVLRLLQQVGQALDVNTLGMQPLQLADFAHALQQPQGLVLVTGPTGSGKTVTLYSALQKLNTADINICSVEDPVEIPIAGLNQTQIHPRAGLTFQGVLRALLRQDPDVIMIGEIRDGETAEIAIKAAQTGHLVLSTLHTNSTCETLVRLQQMGVARWMLSSALTLVIAQRLVRKLCPHCRRQQGEPIHIPDNVWPSPLPHWQAPGCVHCYHGFYGRTALFEVLPITPVIRQLISANTDVESLETHARQAGMRTLFENGCLAVEQGLTTFEELIRVLGMPHGE,3.89 h,,,,,,,,,,,
MSNITIYHNPACGTSRNTLEMIRNSGTEPTIIHYLETPPTRDELVKLIADMGISVRALLRKNVEPYEELGLAEDKFTDDRLIDFMLQHPILINRPIVVTPLGTRLCRPSEVVLEILPDAQKGAFSKEDGEKVVDEAGKRLK [P0AB96],6.69 ± 0.8 h,5.24 h,,,3.72 h,,8.79 ± 1.4 h,3.41 ± 1.2 h,6.1 h,5.09 h,9.63 ± 0.02 h,6.14 ± 0.37 h
MADYQGKNVVIIGLGLTGLSCVDFFLARGVTPRVMDTRMTPPGLDKLPEAVERHTGSLNDEWLMAADLIVASPGIALAHPSLSAAADAGIEIVGDIELFCREAQAPIVAITGSNGKSTVTTLVGEMAKAAGVNVGVGGNIGLPALMLLDDECELYVLELSSFQLETTSSLQAVAATILNVTEDHMDRYPFGLQQYRAAKLRIYENAKVCVVNADDALTMPIRGADERCVSFGVNMGDYHLNHQQGETWLRVKGEKVLNVKEMKLSGQHNYTNALAALALADAAGLPRASSLKALTTFTGLPHRFEVVLEHNGVRWINDSKATNVGSTEAALNGLHVDGTLHLLLGGDGKSADFSPLARYLNGDNVRLYCFGRDGAQLAALRPEVAEQTETMEQAMRLLAPRVQPGDMVLLSPACASLDQFKNFEQRGNEFARLAKELG,5.112 ± 0.021 h,4.445 ± 0.041 h,4.9241 ± 0.00076 h,5.5 ± 0.35 h,4.73 ± 0.097 h,,12.18 ± 0.043 h,4.57 ± 0.075 h,9.03 ± 0.63 h,5.815 ± 0.041 h,,5.38 ± 0.69 h
MKTFSDRWRQLDWDDIRLRINGKTAADVERALNASQLTRDDMMALLSPAASGYLEQLAQRAQRLTRQRFGNTVSFYVPLYLSNLCANDCTYCGFSMSNRIKRKTLDEADIARESAAIREMGFEHLLLVTGEHQAKVGMDYFRRHLPALREQFSSLQMEVQPLAETEYAELKQLGLDGVMVYQETYHEATYARHHLKGKKQDFFWRLETPDRLGRAGIDKIGLGALIGLSDNWRVDSYMVAEHLLWLQQHYWQSRYSVSFPRLRPCTGGIEPASIMDERQLVQTICAFRLLAPEIELSLSTRESPWFRDRVIPLAINNVSAFSKTQPGGYADNHPELEQFSPHDDRRPEAVAAALTAQGLQPVWKDWDSYLGRASQRL,4.35 ± 0.4 h,0.761 ± 0.12 h,0.71 ± 0.041 h,1.45 ± 0.13 h,0.7458 ± 0.0057 h,0.948 ± 0.075 h,0.988 ± 0.12 h,0.86 ± 0.0097 h,1.08 ± 0.084 h,1.09 ± 0.25 h,1.93 ± 0.64 h,1.02 ± 0.03 h
